What was measured:
PhoP [1] = target: T1, PhoP (Mycobacterium tuberculosis, UniProt P71814 1-247); experiment: ITC
PhoP [2] = target: T1, PhoP; experiment: ITC; remark: listed apart in the source
His-PhoP = His-PhoP (Mycobacterium tuberculosis, UniProt P71814 1-247); experiment: SELEX
PhoP [3] = target: T1, PhoP; experiment: competition
PhoP [4] = target: T1, PhoP; experiment: ITC; remark: listed apart in the source

B1: RD6m1 (dsDNA)
DNA 1: AGTACCGGCGCTGACTTTCACAGCTTTCAT
DNA 2: ATGAAAGCTGTGAAAGTCAGCGCCGGTACT
**Q.** With B1 as the binder, how does the binding signal (PhoP [1]) read?
**A.** ~40 fold lower affinity than RD6

B2: Rv3134c (dsDNA)
DNA 1: GCCATTTCTGGGACTTTGCTGTGAAAAGCTG
DNA 2: CAGCTTTTCACAGCAAAGTCCCAGAAATGGC
**Q.** Which Kd (PhoP [2]) does the source give for B2 here?
**A.** 61.7 ± 5.3 nM

B3: RD25 (dominant SELEX sequence) (dsDNA)
DNA 1: CTGGAGCATATGGTCCAGTTAGTACCTCACAGCACTTTCAGAGCTTTCATATGCCTGCACC
DNA 2: GGTGCAGGCATATGAAAGCTCTGAAAGTGCTGTGAGGTACTAACTGGACCATATGCTCCAG
**Q.** Does B3 bind (His-PhoP)?
**A.** binds

B4: fadD9 (dsDNA)
DNA 1: CATCTCACAGCCGATCAGCAGCAGGCTT
DNA 2: AAGCCTGCTGCTGATCGGCTGTGAGATG
**Q.** For B4, which Kd (PhoP [2]) is on record?
**A.** 82 ± 4 nM

B5: espA -246 (dsDNA)
DNA 1: CTTGGGATCGCGCCGCCTACACGGCGGTTGGC
DNA 2: GCCAACCGCCGTGTAGGCGGCGCGATCCCAAG
**Q.** Does B5 bind (PhoP [2])?
**A.** no binding

B6: WB6 D1 (dsDNA)
DNA 1: ATACACAGCTGATTAACAGGATCTATGCC
DNA 2: GGCATAGATCCTGTTAATCAGCTGTGTAT
**Q.** Does B6 bind (PhoP [3])?
**A.** binds

B7: WB6 D5 (dsDNA)
DNA 1: AGATACACAGCTGATTAACAGGATCTA
DNA 2: TAGATCCTGTTAATCAGCTGTGTATCT
**Q.** Does B7 bind (PhoP [3])?
**A.** binds

B8: RD6m23 (dsDNA)
DNA 1: AGTACCTCACAGCAATTTCACAGCTTTCAT
DNA 2: ATGAAAGCTGTGAAATTGCTGTGAGGTACT
**Q.** Does B8 bind (PhoP [4])?
**A.** binds

From PMC4283936
